doi:10.1101/2021.12.16.472899 (bioRxiv, 2021)

B2: PnsB1 (natural protein, UniProt Q9S9N6 45-461, looked up)
chain: VNLKKKNNPWLDPFDSGEDPDNEYGSLFADGKQDEDPRPPDNPDNPYGFLKFPKGYTVELASLPLKIRGDVRRCCCVISGGVYENLLFFPTIQLIKDRYPGVQVDILTTERGKQTYELNKNVRWANVYDPDDHWPEPAEYTDMIGLLKGRYYDMVLSTKLAGLGHAAFLFMTTARDRVSYIYPNVNSAGAGLMLSETFTAENTNLSELGYSMYTQMEDWLGRPFRSVPRTPLLPLRVSISRKVKEVVAAKYRNAGAVTGKFIVIHGIESDSKASMQSKGDADSLLSLEKWAKIIKGVRGFKPVFVIPHEKERENVEDFVGDDTSIVFITTPGQLAALINDSAGVIATNTAAIQLANARDKPCIGLFSSEEKGKLFVPYAEEKSNCVIIASKTGKLADIDIGTVKNAMQVFEGSLALV
B4: NdhD (natural protein, UniProt P26288 1-500, looked up)
chain: MNDFPWLTIIVVFPISAGSLMLFLPHRGNKVNKWYTICICILELLLTTYAFCYNFKMDDPLIQLSEDYKWIDFFDFYWRMGIDGLSIGTILLTGFITTLATLAAFPVTRDSRFFHFLMLAMYSGQIGSFSSRDLLLFFIMWELELIPVYLLLSMWGGKKRLYSATKFILYTAGSSIFLLIGVLGISLYGSNEPTLNLELLANKSYPVTLEILFYIGFLIAFAVKSPIIPLHTWLPDTHGEAHYSTCMLLAGILLKMGAYGLVRINMELLPHAHSMFSPWLLVVGTIQIIYAASTSPGQRNLKKRIAYSSVSHMGFIIIGISSITDPGLNGAILQIISHGFIGAALFFLAGTSYDRIRLVYLDEMGGMAISIPKIFTMFTILSMASLALPGMSGFIAEFIVFFGIITSQKYFLISKIFIIFVMAIGMILTPIYLLSMLRQMFYGYKLINIKNFSFFDSGPRELFLSISILLPIIGIGIYPDFVLSLASDKVESILSNYFYG
B5: PnsL1 (natural protein, UniProt O80634 81-238, looked up)
chain: AEEIPKSYSPFVDREDGYSYYYPSDWREFDFRAHDSAFKDRYLQLQNVRVRFIPTEKNDIHEVGPMEEVVYDLVKHKFAAPNQVATIYDMKERVEDGKNYYTFEYGLRTPIYATTSFATVAVGNNRYYTLIVGANERRWRKVKKQLQVVADSLKILQI
B10: PnsB2 (natural protein, UniProt Q94AQ8 18-348, looked up)
chain: SSISAPQTQTINTEKLEDKFGRKGIKFSESNNIPMVELKVRNGSSLKLSLSDAHVLSYKPKVYWKDEGFEEVLYTVDGDESRGGVGVVIVNGEEPKGGSSVISGCDWSVKDTDSDAIDALQIELSCTAGVLDITYIVSLYPVSMATALVVKNNGRKPVTLKPGIMSYLRFKKRSGAGIQGLKGCSYCPNPPLSSPFELLSPSEAMKAESSGWFGSEEGEKPGIWAVEDSVITLLEKKMSRIYGAPPAERLKAVYNTPPSKFETIDQGRGLFFRMIRIGFEEMYVGSPGSMWDKYGKQHYFVCTGPTSMLVPVDVASGETWRGAMVIEHDNL

Legend:
Experiment in all cases: cryo-EM structure
[1] = target: B2
[2] = target: B4
[3] = target: NdhF (Arabidopsis thaliana (endogenous in the …, UniProt P56752 1-746))
[4] = target: B10
[5] = target: T1, NdhA (Arabidopsis thaliana (endogenous in the …, UniProt Q37165 1-360))
T1 sequence (looked up): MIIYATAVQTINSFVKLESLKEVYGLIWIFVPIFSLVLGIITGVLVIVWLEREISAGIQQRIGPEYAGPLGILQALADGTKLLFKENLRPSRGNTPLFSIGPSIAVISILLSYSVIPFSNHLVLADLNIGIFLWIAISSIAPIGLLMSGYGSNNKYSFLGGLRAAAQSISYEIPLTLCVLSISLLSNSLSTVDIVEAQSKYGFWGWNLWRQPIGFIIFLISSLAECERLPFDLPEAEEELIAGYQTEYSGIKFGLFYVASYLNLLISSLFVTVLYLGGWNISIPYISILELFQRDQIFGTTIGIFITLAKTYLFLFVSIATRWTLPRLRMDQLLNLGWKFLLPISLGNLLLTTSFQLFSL

[6] = target: B5

NdhF (Arabidopsis thaliana, sequence (P56752 whole entry): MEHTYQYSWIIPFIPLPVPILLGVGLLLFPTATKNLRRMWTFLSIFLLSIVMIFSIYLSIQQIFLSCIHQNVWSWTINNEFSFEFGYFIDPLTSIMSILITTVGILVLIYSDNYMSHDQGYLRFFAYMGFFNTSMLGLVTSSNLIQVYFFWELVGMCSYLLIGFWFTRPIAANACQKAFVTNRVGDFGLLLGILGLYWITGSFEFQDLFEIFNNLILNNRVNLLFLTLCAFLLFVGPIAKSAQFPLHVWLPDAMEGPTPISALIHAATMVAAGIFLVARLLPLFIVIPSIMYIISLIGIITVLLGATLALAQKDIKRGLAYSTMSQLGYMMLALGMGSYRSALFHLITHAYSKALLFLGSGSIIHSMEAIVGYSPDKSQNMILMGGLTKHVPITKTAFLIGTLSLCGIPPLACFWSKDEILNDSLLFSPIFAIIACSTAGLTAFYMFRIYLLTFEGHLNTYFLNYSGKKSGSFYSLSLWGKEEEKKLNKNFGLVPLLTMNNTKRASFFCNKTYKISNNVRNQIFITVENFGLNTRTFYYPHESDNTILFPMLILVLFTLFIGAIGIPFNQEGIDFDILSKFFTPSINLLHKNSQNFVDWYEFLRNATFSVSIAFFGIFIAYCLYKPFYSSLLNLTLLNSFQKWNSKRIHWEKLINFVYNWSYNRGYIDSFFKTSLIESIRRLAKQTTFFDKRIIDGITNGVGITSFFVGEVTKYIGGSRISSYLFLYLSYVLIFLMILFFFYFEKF

B1: Lhca5 (natural protein, UniProt Q9C639 33-256, looked up)
chain: AAGGGINPTVAVERATWLPGLNPPPYLDGNLAGDYGFDPLGLGEDPESLKWYVQAELVHSRFAMLGVAGILFTDLLRTTGIRNLPVWYEAGAVKFDFASTKTLIVVQFLLMGFAETKRYMDFVSPGSQAKEGSFFFGLEAALEGLEPGYPGGPLLNPLGLAKDVQNAHDWKLKEIKNGRLAMMAMLGFFVQASVTHTGPIDNLVEHLSNPWHKTIIQTLFTSTS
binding result [1]: binds

B2
binding result [2]: binds
binding result [3]: binds

B3: PnsB3 (natural protein, UniProt Q9LU21 49-204, looked up)
chain: AISTAPASQPPAADEPDEPPAVDFAFVHSVLLPDGTPDVHWRRANGGQKLRDIMLDSNIELYGPYSKPLSNCAGVGTCATCMVEIVNGKELLNPRTDIEKEKLKRKPKNWRLACQTNVGNPDSTGLVVIQQLPEWKAHEWNIPKNIPNDDDLETST
binding result [4]: binds
binding result [1]: binds
binding result [3]: binds

B4
binding result [3]: binds

B5
binding result [5]: binds

B6: Lhca2 (natural protein, UniProt Q9SYW8 44-257, looked up)
chain: RAVAADPDRPIWFPGSTPPEWLDGSLPGDFGFDPLGLSSDPDSLKWNVQAEIVHCRWAMLGAAGIFIPEFLTKIGILNTPSWYTAGEQEYFTDKTTLFVVELILIGWAEGRRWADIIKPGSVNTDPVFPNNKLTGTDVGYPGGLWFDPLGWGSGSPAKLKELRTKEIKNGRLAMLAVMGAWFQHIYTGTGPIDNLFAHLADPGHATIFAAFTPK
binding result [3]: binds

B7: Lhca6 (natural protein, UniProt Q8LCQ4 34-270, looked up)
chain: SSTGGRLMRERLVVVRAGKEVSSVCEPLPPDRPLWFPGSSPPEWLDGSLPGDFGFDPLGLGSDPDTLKWFAQAELIHSRWAMLAVTGIIIPECLERLGFIENFSWYDAGSREYFADSTTLFVAQMVLMGWAEGRRWADLIKPGSVDIEPKYPHKVNPKPDVGYPGGLWFDFMMWGRGSPEPVMVLRTKEIKNGRLAMLAFLGFCFQATYTSQDPIENLMAHLADPGHCNVFSAFTSH
binding result [4]: binds
binding result [3]: binds

B8: PnsL2 (natural protein, UniProt Q9XI73 69-190, looked up)
chain: WGTRSFIKEKYFMPGLSPEDAAARIKQTAEGLRDMREMLDHMSWRYVIFYIRLKQAYLSQDLTNAMNILPESRRNDYVQAANELVENMSELDFYVRTPKVYESYLYYEKTLKSIDNVVEFLA
binding result [6]: binds
binding result [5]: binds

B9: PnsL5 (natural protein)
chain: not shown
binding result [2]: binds

B10
binding result [3]: binds
